Measurements published in publication PMC6093232, “PROMIS, global analysis of PROtein–metabolite interactions using size separation in Arabidopsis thaliana” (The Journal of Biological Chemistry, 2018).

Legend:
[1] = target: human recombinant GAPDH protein (human) (UniProt P04406); assay: nano-DSF (thermal shift, Prometheus NT.48); human GAPDH 1 μM with 500 μM dipeptide in 10 mM Tris-HCl pH 7.5, 0.5 M NaCl; thermal ramp 2 °C/min, 20–90 °C; Tm from F350/F330
[2] = target: His6-GAPCP1 (A. thaliana) (UniProt Q9SAJ6); assay: nano-DSF (thermal shift, Prometheus NT.48); plant GAPCs 0.2–0.25 mg/ml with 25 μM (GAPC1/2, GAPCP1) or 50 μM (GAPCP2) dipeptide in 1× PBS; thermal ramp 2 °C/min, 20–90 °C; Tm from F350/F330
His6-GAPCP1 (A. thaliana), sequence (Q9SAJ6 70-422): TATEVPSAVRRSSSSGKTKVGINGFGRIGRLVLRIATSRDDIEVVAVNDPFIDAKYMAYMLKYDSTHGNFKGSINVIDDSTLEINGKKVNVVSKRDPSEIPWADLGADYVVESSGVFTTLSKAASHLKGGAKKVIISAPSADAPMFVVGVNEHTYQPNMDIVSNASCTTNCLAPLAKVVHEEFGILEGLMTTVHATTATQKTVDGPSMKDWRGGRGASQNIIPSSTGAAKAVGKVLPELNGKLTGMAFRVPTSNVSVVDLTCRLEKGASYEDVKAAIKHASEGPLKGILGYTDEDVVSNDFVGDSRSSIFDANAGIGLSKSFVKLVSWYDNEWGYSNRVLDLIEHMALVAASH

[3] = target: His6-GAPCP2 (A. thaliana) (UniProt Q5E924); assay: as above
His6-GAPCP2 (A. thaliana), sequence (Q5E924 67-420): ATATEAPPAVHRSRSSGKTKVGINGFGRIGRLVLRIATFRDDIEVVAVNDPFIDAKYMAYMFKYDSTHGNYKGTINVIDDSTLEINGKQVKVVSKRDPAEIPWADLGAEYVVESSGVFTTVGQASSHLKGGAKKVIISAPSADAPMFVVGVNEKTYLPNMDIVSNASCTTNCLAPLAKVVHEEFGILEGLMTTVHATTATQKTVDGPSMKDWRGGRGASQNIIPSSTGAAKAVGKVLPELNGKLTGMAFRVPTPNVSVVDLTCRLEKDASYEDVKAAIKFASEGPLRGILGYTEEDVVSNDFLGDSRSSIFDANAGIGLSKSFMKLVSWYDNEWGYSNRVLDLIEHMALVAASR

human recombinant GAPDH protein (human), sequence (P04406 whole entry): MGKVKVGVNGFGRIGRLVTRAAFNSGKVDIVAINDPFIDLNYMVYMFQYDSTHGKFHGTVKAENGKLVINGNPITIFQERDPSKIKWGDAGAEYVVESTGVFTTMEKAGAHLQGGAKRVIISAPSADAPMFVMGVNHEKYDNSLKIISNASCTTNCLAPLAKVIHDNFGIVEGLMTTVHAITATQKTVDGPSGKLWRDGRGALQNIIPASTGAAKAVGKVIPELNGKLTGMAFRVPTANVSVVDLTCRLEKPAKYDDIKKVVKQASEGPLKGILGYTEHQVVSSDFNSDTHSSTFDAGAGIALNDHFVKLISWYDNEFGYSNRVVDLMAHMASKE

increase of Tm with 500 μM Tyr–Asp [1]: 1.1 °C
decrease of Tm with 25 μM Tyr–Asp [2]: 2 °C
decrease of Tm with 50 μM Tyr–Asp [3]: 1.5 °C
Substance: dipeptide Tyr–Asp
